The values that follow come from PMC8223116, “A novel G-quadruplex aptamer-based spike trimeric antigen test for the detection of SARS-CoV-2”.

For this data set, the target named is SARS-CoV-2 spike RBD (SARS-CoV-2, UniProt P0DTC2 319-541). Put plainly: ALISA.

Consider TGGGAGCCTGGGACATAGTGGGGAAAGAGGGGAAGAGTGGGTCT (structured_DNA) [S14 truncated (44-mer)], for which the binding result is reported as “no binding”.
With TCGTTGGTGGCGGCGTGCCCGGGGCACGGGGACGTCTCGCACGGC (ssDNA) [S13 truncated (45-mer)], the binding result is “no binding”.
